The values below come from the RNAGym collection of RNA variant scans (doi:10.7554/elife.80360).

B1: CPEB3 Ribozyme (parent)
chain: GGGGGCCACAGCAGAAGCGUUCACGUCGCGGCCCCUGUCAGAUUCUGGUGAAUCUGCGAAUUCUGCUGU

This series covers variants of B1. Briefly: self-cleavage, relative activity (ratio to wild type); higher = more cleavage; co-transcriptional.
On to A10C G11C, for which the self-cleavage worked out at 0.764. Consider C9U C39U, for which the self-cleavage was 0.935.

On to C9U A13G, for which the self-cleavage was 1.04. Next, C9U U43G: 0.967; A10C G37A: 0.242; A10C C22A: 0.161. As to C9U G47C, the self-cleavage worked out at 1.06. C9U G47U: the self-cleavage stood at 1.02.

Regarding A10C G19U, the self-cleavage stood at 0.446. In the case of A10C G19C, the self-cleavage stood at 0.097.

On to A10C G48C, for which the self-cleavage stood at 0.992. Next, A10C G48U: 1.02; C9U C29U: 0.874.

C9G G31A: the self-cleavage was 0.936. C9G C35A: the self-cleavage is 0.267. Take C9U G28U: the self-cleavage came out at 0.169.

As to C9G U44G, the self-cleavage was determined as 0.96. On to C9G U20C, for which the self-cleavage is 0.254. For C9U G30A, the self-cleavage came to 0.972. Regarding C9U G30C, the self-cleavage is 0.981. On to A10C C45G, for which the self-cleavage amounted to 1.05. Next, A10C G47C: 1; A10C G28C: 0.102; C9U A40C: 0.841.

On to A10C G14C, for which the self-cleavage was determined as 0.252. Next, C9U U20G: 0.17; C9G U53A: 0.98. Consider C9U U69C, for which the self-cleavage was 1.07.

Turning to C9G C45U, the self-cleavage stood at 0.998. Turning to C9G C45A, the self-cleavage was found to be 1.01. C9G G37C: the self-cleavage was found to be 0.289. With C9G G37A, the self-cleavage came out at 0.371. On to C9U C33G, for which the self-cleavage turned out to be 0.974.

In the case of A10C A40G, the self-cleavage turned out to be 0.976. For C9G G30C, the self-cleavage is 0.948. To C9G G30U belongs 0.759; to C9G G30A, 0.975.

As for C9U A59U, the self-cleavage was 0.888.

Take C9U A59C: the self-cleavage was 0.877. In the case of C9G G41A, the self-cleavage turned out to be 0.872.

For the variant C9G U36A, the self-cleavage was 0.256. Regarding C9G C57U, the self-cleavage was 0.356.

As for C9U A16U, the self-cleavage amounted to 0.864.

With C9U A16G, the self-cleavage came out at 0.956.

On to C9G U67A, for which the self-cleavage was 0.959. With C9G C34A, the self-cleavage was 0.953. For the variant C9G C34U, the self-cleavage is 1.01. For the variant C9U G17C, the self-cleavage came out at 0.32.

Consider C9U G17U, for which the self-cleavage is 0.832. On to C9U G37U, for which the self-cleavage is 0.432. For C9U G37C, the self-cleavage is 0.224.

For the variant C9U C34U, the self-cleavage came out at 1.01. As to C9U C32U, the self-cleavage amounted to 1.02. To A10C C29U belongs 0.221. On to C9G C33A, for which the self-cleavage was found to be 1.03. Take A10C A23G: the self-cleavage is 0.94. With C9G G17A, the self-cleavage amounted to 0.66. For the variant C9G G17U, the self-cleavage turned out to be 0.68. With A10C G56U, the self-cleavage worked out at 0.936. On to A10C G56A, for which the self-cleavage came to 0.989.

Consider C9G U64G, for which the self-cleavage came to 0.936.

Consider C9G G28C, for which the self-cleavage came to 0.149. Next, C9G G28A: 0.264. Regarding C9U A52G, the self-cleavage worked out at 0.673. In the case of C9G G19C, the self-cleavage amounted to 0.133.

Turning to C9G G19U, the self-cleavage amounted to 0.643. C9U A60U: the self-cleavage is 0.538. Next, C9U C45G: 1.07. On to C9G G11C, for which the self-cleavage came out at 0.721. To C9G G11U belongs 0.922.

Consider C9U U36C, for which the self-cleavage was determined as 1.02. As for C9U U36A, the self-cleavage turned out to be 0.312. Turning to C9U G58U, the self-cleavage was found to be 1.02. With C9U G58A, the self-cleavage was determined as 1.03. Consider C9G U38C, for which the self-cleavage turned out to be 0.997. In the case of C9G U55A, the self-cleavage was found to be 0.929. A10C U21G: the self-cleavage came to 0.535.

For the variant A10C U21C, the self-cleavage came out at 0.905.

On to C9G G48U, for which the self-cleavage was 1.01.

Regarding A10C C27G, the self-cleavage is 0.0915. To C9U G56U belongs 0.971; to C9U G50A, 1.02. Consider C9U C54U, for which the self-cleavage amounted to 0.988. To A10C C18A belongs 0.12; to A10C C18U, 0.882; to A10C A42C, 0.961.

For A10C A42G, the self-cleavage came out at 0.896. Next, C9U C57G: 0.334; A10C A59G: 1.

On to A10C A59C, for which the self-cleavage is 0.832. Take C9U G41C: the self-cleavage came out at 0.949.

For the variant C9U G41U, the self-cleavage turned out to be 0.974.

As to C9U U21A, the self-cleavage worked out at 0.932. For C9U U21G, the self-cleavage came out at 0.801. For the variant C9U U26A, the self-cleavage is 0.929.

For C9U U26G, the self-cleavage amounted to 0.942.

With C9U G19C, the self-cleavage is 0.143. Turning to C9G C66A, the self-cleavage is 0.831. In the case of C9G C27G, the self-cleavage was found to be 0.246. Take C9G C27A: the self-cleavage turned out to be 0.754.

With C9G C63G, the self-cleavage worked out at 0.799.

With C9U U44G, the self-cleavage turned out to be 1.06. To C9G G50A belongs 1.01; to C9G G50U, 1.02; to C9U C66G, 0.921. With C9U, the self-cleavage is 1.01. In the case of C9U G68C, the self-cleavage was 1.03.

Regarding A10C U36G, the self-cleavage was found to be 0.246. Regarding A10C U36C, the self-cleavage worked out at 0.966. For the variant A10C U36A, the self-cleavage was determined as 0.226.

Regarding A10C C33U, the self-cleavage is 0.98. As to C9G C54G, the self-cleavage turned out to be 0.926. Next, C9U G65A: 0.965; C9U G14C: 0.747; C9U G14U: 0.898. With C9U A51U, the self-cleavage was determined as 1.

As to A10C C34G, the self-cleavage worked out at 0.868. As for C9G U69C, the self-cleavage was 1.07. With C9G G14A, the self-cleavage is 0.783. Consider A10C C39U, for which the self-cleavage was found to be 0.877.

For the variant C9U U61C, the self-cleavage came to 0.866. As to A10C G58A, the self-cleavage is 0.961. Regarding C9G G56A, the self-cleavage worked out at 1.01. On to C9G G56U, for which the self-cleavage was 0.97. Next, C9G G56C: 0.924. Next, A10C C63G: 0.629; C9U U62C: 0.966.

As for C9U U62A, the self-cleavage amounted to 0.997. In the case of A10C G41A, the self-cleavage came to 0.824. Regarding A10C G41U, the self-cleavage was found to be 0.826. In the case of A10C G41C, the self-cleavage amounted to 0.798.

For A10C A52C, the self-cleavage turned out to be 0.986. A10C A52U: the self-cleavage stood at 0.985. For the variant C9G G47A, the self-cleavage amounted to 1.05. Regarding C9G G47U, the self-cleavage amounted to 1.04. Take A10C C32G: the self-cleavage turned out to be 0.418.

As for C9U U53C, the self-cleavage is 0.931. In the case of A10C C66U, the self-cleavage came out at 0.974. Regarding A10C C66G, the self-cleavage came to 0.892.

Turning to A10C C66A, the self-cleavage came to 0.862. On to A10C G25U, for which the self-cleavage came out at 0.0666. Take A10C G31C: the self-cleavage turned out to be 0.233. In the case of C9U G11U, the self-cleavage is 0.945.

Take C9G U46C: the self-cleavage came to 0.937.

Regarding C9G U46G, the self-cleavage was found to be 1.

Take A10C C54A: the self-cleavage is 0.896. As to A10C C54U, the self-cleavage is 1.02. For A10C C54G, the self-cleavage amounted to 0.993. With C9U G25A, the self-cleavage came to 0.306. As for A10C G17U, the self-cleavage stood at 0.464.

As for C9U C27G, the self-cleavage came out at 0.203. A10C C24G: the self-cleavage came to 0.478.

For A10C G50C, the self-cleavage is 0.996. For A10C G50U, the self-cleavage is 1. Regarding C9G U49G, the self-cleavage stood at 0.954.

In the case of C9G U49C, the self-cleavage came out at 1.01.

For the variant C9G U49A, the self-cleavage turned out to be 1. Next, C9U A15U: 0.931.

With C9U A15G, the self-cleavage turned out to be 1.05. To C9U C12A belongs 0.785; to C9U C12U, 1.01; to C9U C12G, 0.976. Take C9U C22G: the self-cleavage amounted to 0.21. Turning to C9U C22A, the self-cleavage stood at 0.226.

Regarding C9G U61G, the self-cleavage amounted to 0.958. Take C9U G48C: the self-cleavage worked out at 1.02. For C9G G58A, the self-cleavage turned out to be 1.01.
